Experimental data taken from US20160279221A1 (UNITED STATES OF AMERICA AS REPRESENTED BY THE SECRETARY OF …, published 2016).

T1: P. falciparum 7G8 AMA1 recombinant allelic protein (Plasmodium falciparum, UniProt P50492 83-531)
T1 sequence: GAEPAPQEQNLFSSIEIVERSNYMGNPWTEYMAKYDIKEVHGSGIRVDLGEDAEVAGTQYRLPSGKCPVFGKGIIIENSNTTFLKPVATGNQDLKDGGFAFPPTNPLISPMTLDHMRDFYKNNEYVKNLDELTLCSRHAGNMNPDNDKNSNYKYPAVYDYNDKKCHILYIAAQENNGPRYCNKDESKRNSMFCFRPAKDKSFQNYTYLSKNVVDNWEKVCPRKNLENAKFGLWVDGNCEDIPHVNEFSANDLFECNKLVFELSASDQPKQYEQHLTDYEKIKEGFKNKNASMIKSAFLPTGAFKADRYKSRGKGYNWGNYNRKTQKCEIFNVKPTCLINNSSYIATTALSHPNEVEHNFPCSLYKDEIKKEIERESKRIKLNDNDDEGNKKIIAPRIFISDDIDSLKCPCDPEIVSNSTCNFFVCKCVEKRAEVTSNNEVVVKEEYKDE

T2: P. falciparum 3D7 AMA1 recombinant allelic protein (Plasmodium falciparum, UniProt P22621 83-531)
T2 chain: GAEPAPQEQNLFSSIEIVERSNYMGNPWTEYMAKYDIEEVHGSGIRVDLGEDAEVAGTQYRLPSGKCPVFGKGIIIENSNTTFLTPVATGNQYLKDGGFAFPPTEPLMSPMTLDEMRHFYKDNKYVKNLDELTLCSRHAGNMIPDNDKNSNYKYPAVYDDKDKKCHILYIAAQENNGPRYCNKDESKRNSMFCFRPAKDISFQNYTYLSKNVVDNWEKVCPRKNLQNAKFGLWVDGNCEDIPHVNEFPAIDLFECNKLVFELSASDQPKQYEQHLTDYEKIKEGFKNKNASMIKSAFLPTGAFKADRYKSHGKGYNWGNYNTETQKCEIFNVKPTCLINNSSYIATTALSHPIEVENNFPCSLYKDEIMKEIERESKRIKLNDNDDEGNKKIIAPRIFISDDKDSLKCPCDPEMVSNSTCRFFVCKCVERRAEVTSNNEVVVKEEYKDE

T3: P. falciparum HB3 AMA1 recombinant allelic protein (Plasmodium falciparum, UniProt P50491 83-531)
T3 sequence: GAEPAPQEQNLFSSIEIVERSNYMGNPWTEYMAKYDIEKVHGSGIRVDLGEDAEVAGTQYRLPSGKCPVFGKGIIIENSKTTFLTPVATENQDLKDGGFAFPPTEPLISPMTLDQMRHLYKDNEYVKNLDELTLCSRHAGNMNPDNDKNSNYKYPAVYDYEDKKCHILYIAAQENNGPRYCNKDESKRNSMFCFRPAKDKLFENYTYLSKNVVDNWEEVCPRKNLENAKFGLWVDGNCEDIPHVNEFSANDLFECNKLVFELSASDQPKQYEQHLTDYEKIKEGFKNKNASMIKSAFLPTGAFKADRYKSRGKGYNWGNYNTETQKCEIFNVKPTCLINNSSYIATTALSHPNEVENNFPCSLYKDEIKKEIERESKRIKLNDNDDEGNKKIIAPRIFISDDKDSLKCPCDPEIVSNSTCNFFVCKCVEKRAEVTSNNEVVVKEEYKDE

T4: P. falciparum W2mef AMA1 recombinant allelic protein (Plasmodium falciparum, UniProt P50492 83-531)
T4 chain: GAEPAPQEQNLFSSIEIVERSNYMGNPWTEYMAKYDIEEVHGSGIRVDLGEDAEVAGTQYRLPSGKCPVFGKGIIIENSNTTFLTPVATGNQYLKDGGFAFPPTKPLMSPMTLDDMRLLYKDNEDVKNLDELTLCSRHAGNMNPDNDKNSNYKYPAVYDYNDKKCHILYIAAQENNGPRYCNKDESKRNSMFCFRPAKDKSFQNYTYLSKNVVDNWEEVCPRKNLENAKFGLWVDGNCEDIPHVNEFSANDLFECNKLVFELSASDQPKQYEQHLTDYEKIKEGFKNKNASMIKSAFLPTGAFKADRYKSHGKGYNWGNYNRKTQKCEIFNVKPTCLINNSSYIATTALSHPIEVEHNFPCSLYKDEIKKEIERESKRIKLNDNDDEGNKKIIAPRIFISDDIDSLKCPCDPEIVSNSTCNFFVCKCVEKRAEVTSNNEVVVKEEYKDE

T5: P. falciparum FVO AMA1 recombinant allelic protein (Plasmodium falciparum, UniProt P50490 83-531)
T5 sequence: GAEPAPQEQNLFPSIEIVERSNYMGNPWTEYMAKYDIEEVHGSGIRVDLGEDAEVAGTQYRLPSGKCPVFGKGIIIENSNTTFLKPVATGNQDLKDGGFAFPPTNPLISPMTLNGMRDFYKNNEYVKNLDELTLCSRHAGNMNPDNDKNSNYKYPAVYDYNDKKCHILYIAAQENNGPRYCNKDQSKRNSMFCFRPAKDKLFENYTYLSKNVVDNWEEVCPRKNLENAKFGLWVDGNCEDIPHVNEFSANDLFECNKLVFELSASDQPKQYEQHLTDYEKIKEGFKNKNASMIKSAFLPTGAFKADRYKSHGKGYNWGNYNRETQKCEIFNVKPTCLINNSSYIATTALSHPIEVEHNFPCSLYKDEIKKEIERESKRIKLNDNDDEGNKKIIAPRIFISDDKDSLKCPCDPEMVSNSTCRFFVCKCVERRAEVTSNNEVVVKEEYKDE


What was measured:
[1] = molecular target: T1, P. falciparum 7G8 AMA1 recombinant …; test: dot blot against 7 AMA1 allelic proteins
[2] = molecular target: T2, P. falciparum 3D7 AMA1 recombinant …; test: dot blot against 7 AMA1 allelic proteins
[3] = molecular target: T3, P. falciparum HB3 AMA1 recombinant …; test: dot blot against 7 AMA1 allelic proteins
[4] = molecular target: T4, P. falciparum W2mef AMA1 recombinant …; test: dot blot against 7 AMA1 allelic proteins
[5] = molecular target: T5, P. falciparum FVO AMA1 recombinant …; test: dot blot against 7 AMA1 allelic proteins
[6] = molecular target: T6, AMA1 on P. falciparum 3D7 strain parasites (Plasmodium falciparum); test: cell-based or functional assay
[7] = molecular target: T6, AMA1 on P. falciparum 3D7 strain …; test: cell-based or functional assay; remark: listed apart in the source

Binder | binding result [1] | binding result [2] | binding result [3] | binding result [4] | binding result [5] | Inhibition (GIA at 1 mg/ml against the 3D7 target strain) [6] [%] | IC30 concentration (30% inhibition against the 3D7 target parasites, GIA) [7] [mg/mL]
monoclonal antibody 1E10 (antibody, V domains shown, Mouse monoclonal raised against QV, purified from ascites on Protein G; also called mAb 1E10; Monoclonal 1E10) VH: EVQLQESGAELAKPGASVKLSCKASGYTFTNYLMHWIKQRPGQGLEWIGYINHGSGYTNYNQKFIDRATLTADKSSSTAYMQLRSLTYEDSAVYYCVHGYFDVWGTGTTVTVSS VL: QIVLTQSPTIMSASPGEKVTMTCSASSSVTYMHWYQQKPGTSPKRWIYDTSKLASGVPARFSGSGSGTSYSLTISSMEAEDAATYYCHQRSSYPTFGGGTKLEIKR | binds | binds | binds | binds | binds | 20 | 1.9
monoclonal antibody 1B10 (antibody, V domains shown) VH: EVQLQESGPGLVQPSQSLSITCTVSGFSLNMYGVHWVRQSPGKGLEWLGVIWSGGTTDYNAAFISRLSINRDNSKSQVFFKMNSLQTDDTAIYYCVRNNGYYVDAMDYWGQGTSVAVSS VL: DVVMTQTPLSLPVSLGDQASISCRSSQSLVHSNGNTYLHWYLQRPGQSPKLLIYKVSNRFSGVPDRFSGSGSGTDFTLKISRVEAEDLGVYFCSQSTLGPTFGGGTKLEMQR | – | – | – | – | – | 65 | 0.15
monoclonal antibody 4E11 (antibody, V domains shown) VH: EVQLQESGPGLVRPSQSLSITCTVSGFSLPLYGVHWVRQSPGKGLEWLGVIWSGGSTDYNAAFVSRLSISKDNSKSQVFFEMNSLQADDTATYYCARNNGYYVDAMDYWGQGTSVTVSS VL: DVVMTQTPLSLPVSLGDQASISCRSSQSLVHSNGNTYLHWYLQKPGQSPKLLIFKVSNRFSGVPDRFSGSGSGTDFTLQISRVEAEDLGFYFCSQSTHVPTFGGGTKLEIKR | – | – | – | – | – | 62 | 0.22
monoclonal antibody 4E8 (antibody, V domains shown) VH: EVQLQESGPGLVQPSQSLSITCTVSDFSLIMYGVHWVRQSPGKGLEWLGVIWSGGSTDYNAAFISRLSISKDNSKSQVFFKMNSLQADDTAIYYCARNNGYYVDAMDYWGQGTSVTVSS VL: DVVMTQTPLSLPVSLGDQASISCRSSQSLVHNNGNTYLHWYLQKPGQSPKLLIYKVSNRFFGVPDRFSGSGSGTDFTLKISRVEAEDLGVYFCSQSTHVPTFGGGTKLEIKR | – | – | – | – | – | 67 | 0.15
